Measurements from publication PMC12403168, “Revisiting the co-crystal structure of a DNA glycosylase with photocaged substrate: a suitable time-resolved crystallography target?”.

B1: oG*/C‡ duplex (Table S1 entries 3 and 5) (dsDNA)
DNA 1: AGCGTCCAGGTCTACC
DNA 2: TGGTAGACCTGGACGC
modifications: strand 1 G9 = photocaged 8-oxoguanine (oG*); strand 2 C9 = N4-modified cytosine (C‡) for disulfide cross-linking
B2: oG/C‡ duplex, uncaged in crystallo by 365 nm light (dsDNA)
DNA 1: AGCGTCCAGGTCTACC
DNA 2: TGGTAGACCTGGACGC
modifications: strand 1 G9 = 8-oxoguanine (oG) after photodeprotection; strand 2 C9 = N4-modified cytosine (C‡), disulfide to Cys149

Legend:
[1] = target: T1, hOgg1 N149C (8-oxoguanine DNA glycosylase) (Homo sapiens, UniProt O15527 12-327, N149C); assay: X-ray crystallography; disulfide cross-linked complex, dark (G*Odark), 2.81 A; Complex formation: 20 mM Tris-HCl, 100 mM NaCl, 1 mM EDTA pH 7.4, on ice overnight (12 nmol DNA, 24 nmol protein in 1.2 ml); purified by anion exchange and SEC; crystallized at 13 mg/ml; details: protein: recombinant; tags: His-tag (pET28a, NdeI/XhoI); 5' overhang 1 nt on each strand
[2] = target: T1, hOgg1 N149C (8-oxoguanine DNA …); assay: X-ray crystallography; disulfide cross-linked complex, illuminated 365 nm (95 J) and cryotrapped (G*Olight), oG in active site at 68% occupancy, Ca2+ present, 2.48 A; Complex formation: 20 mM Tris-HCl, 100 mM NaCl, 1 mM EDTA pH 7.4, on ice overnight (12 nmol DNA, 24 nmol protein in 1.2 ml); purified by anion exchange and SEC; crystallized at 13 mg/ml; details: protein: recombinant; tags: His-tag (pET28a, NdeI/XhoI); 5' overhang 1 nt on each strand

T1 sequence (O15527 12-327 N149C): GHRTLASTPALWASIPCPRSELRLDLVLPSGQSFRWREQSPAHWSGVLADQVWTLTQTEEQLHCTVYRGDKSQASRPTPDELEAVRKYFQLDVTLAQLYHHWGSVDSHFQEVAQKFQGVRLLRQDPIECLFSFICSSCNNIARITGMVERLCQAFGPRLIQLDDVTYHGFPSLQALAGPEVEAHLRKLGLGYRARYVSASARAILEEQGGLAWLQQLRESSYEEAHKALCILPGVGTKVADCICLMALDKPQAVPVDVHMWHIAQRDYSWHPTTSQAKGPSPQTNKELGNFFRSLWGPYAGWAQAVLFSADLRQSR

Binder | binding result [1] | binding result [2]
B1 | binds | –
B2 | – | binds
